The values that follow are results of earlier work, collected in PMC6451094.

The series has as its target TBP (Saccharomyces cerevisiae) (UniProt P13393).
Sequence of UniProt P13393 (P13393 2-240): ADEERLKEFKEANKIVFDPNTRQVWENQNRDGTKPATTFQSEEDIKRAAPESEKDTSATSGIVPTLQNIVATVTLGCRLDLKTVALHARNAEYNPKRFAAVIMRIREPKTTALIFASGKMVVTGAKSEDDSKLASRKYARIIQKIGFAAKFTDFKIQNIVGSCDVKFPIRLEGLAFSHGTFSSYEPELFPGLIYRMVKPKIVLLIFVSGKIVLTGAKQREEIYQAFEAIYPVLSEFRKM

In the case of Mot1 (from UniProt P32333), the Kd is 1.5 nM.

As a reminder, the Kd is the concentration at which binding is half-saturated.
